Sequences and labels used below:
B1: Azoarcus group I ribozyme (parent)
chain: GUGCCUUGCGCCGGGAAACCACGCAAGGGAUGGUGUCAAAUUCGGCGAAACCUAAGCGCCCGCCCGGGCGUAUGGCAACGCCGAGCCAAGCUUCGGCGCCUGCGCCGAUGAAGGUGUAGAGACUAGACGGCACCCACCUAAGGCAAACGCUAUGGUGAAGGCAUAGUCCAGGGAGUGGCGAAAGUCACACAAACCGG

Variants of B1 are the subject of this data set. The data set is described as follows: reverse-splicing fitness (ratio to wild type); higher = more active; in vitro selection; Mg2+ level not given. The essentials: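 An in vitro group I ribozyme library with randomized positions was T7-transcribed and gel-purified. In triplicate, 10 pmol RNA in EPPS pH 7.5 was reacted with 50 pmoles of a 30-nt RNA substrate for 1 h at 37 °C across several added MgCl2 levels (1–48 mM), then stopped with EDTA. Products were reverse transcribed from a substrate-complementary primer, PCR-amplified and sequenced (HiSeq 4000). Fitness is a variant's read proportion after selection over that before, normalised to wild type.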
With GUGCCUUGCGCCGGGAAACCACGCAAGGGAUGGUGUCAAAUUCGGCGAAACCUAAGCGCCCGCCCGGGCGUAUGGCAACGCUGAGCCAAGCUUCGGCGCCUGCGCCGAUGCAGGUGUAGCGACUAGACGGCACCCACCUAAGGCCAACGGUAUGGUGAAGGCAUAGUCAAGGGAGAGGCGAAAGUCACACAAACCGG [C82U A111C A120C A145C C150G C169A U176A], the reverse-splicing fitness was 0.00661. On to GUGCCUUGCGCCGGGAAACCACGCAAGGGAUGGUGUCAAAUUCGGCGAAACCUAAGCGCCCGCCCGGGCGUAUGGCAACGCUGAGCCAAGCUUCGGCGCCUGCGCCGAUGCAGGUGUAGCGACUAGACGGCACCCACCUAAGGCCAACGGUAUGGUGAAGGCAUAGUCAAGGGAGGGGCGAAAGUCACACAAACCGG [C82U A111C A120C A145C C150G C169A U176G], for which the reverse-splicing fitness worked out at 0.00633.

For GUGCCUUGCGCCGGGAAACCACGCAAGGGAUGGUGUCAAAUUCGGCGAAACCUAAGCGCCCGCCCGGGCGUAUGGCAACGCUGAGCCAAGCUUCGGCGCCUGCGCCGAUGCAGGUGUAGCGACUAGACGGCACCCACCUAAGGCCAACGGUAUGGUGAAGGCAUAGUCAAGGGAGCGGCGAAAGUCACACAAACCGG [C82U A111C A120C A145C C150G C169A U176C], the reverse-splicing fitness came to 0.00704. With GUGCCUUGCGCCGGGAAACCACGCAAGGGAUGGUGUCAAAUUCGGCGAAACCUAAGCGCCCGCCCGGGCGUAUGGCAACGCUGAGCCAAGCUUCGGCGCCUGCGCCGAUGCAGGUGUAGCGACUAGACGGCACCCACCUAAGGCCAACGAUAUGGUGAAGGCAUAGUCUAGGGAGGGGCGAAAGUCACACAAACCGG [C82U A111C A120C A145C C150A C169U U176G], the reverse-splicing fitness was 0.00596. GUGCCUUGCGCCGGGAAACCACGCAAGGGAUGGUGUCAAAUUCGGCGAAACCUAAGCGCCCGCCCGGGCGUAUGGCAACGCUGAGCCAAGCUUCGGCGCCUGCGCCGAUGCAGGUGUAGCGACUAGACGGCACCCACCUAAGGCCAACGAUAUGGUGAAGGCAUAGUCUAGGGAGCGGCGAAAGUCACACAAACCGG [C82U A111C A120C A145C C150A C169U U176C]: the reverse-splicing fitness came to 0.0117.

With GUGCCUUGCGCCGGGAAACCACGCAAGGGAUGGUGUCAAAUUCGGCGAAACCUAAGCGCCCGCCCGGGCGUAUGGCAACGCUGAGCCAAGCUUCGGCGCCUGCGCCGAUGCAGGUGUAGCGACUAGACGGCACCCACCUAAGGCCAACGAUAUGGUGAAGGCAUAGUCUAGGGAGAGGCGAAAGUCACACAAACCGG [C82U A111C A120C A145C C150A C169U U176A], the reverse-splicing fitness came out at 0.0156.

Turning to GUGCCUUGCGCCGGGAAACCACGCAAGGGAUGGUGUCAAAUUCGGCGAAACCUAAGCGCCCGCCCGGGCGUAUGGCAACGCUGAGCCAAGCUUCGGCGCCUGCGCCGAUGCAGGUGUAGCGACUAGACGGCACCCACCUAAGGCCAACGGUAUGGUGAAGGCAUAGUCGAGGGAGCGGCGAAAGUCACACAAACCGG [C82U A111C A120C A145C C150G C169G U176C], the reverse-splicing fitness is 0.00799.

On to GUGCCUUGCGCCGGGAAACCACGCAAGGGAUGGUGUCAAAUUCGGCGAAACCUAAGCGCCCGCCCGGGCGUAUGGCAACGCUGAGCCAAGCUUCGGCGCCUGCGCCGAUGCAGGUGUAGCGACUAGACGGCACCCACCUAAGGCCAACGGUAUGGUGAAGGCAUAGUCGAGGGAGAGGCGAAAGUCACACAAACCGG [C82U A111C A120C A145C C150G C169G U176A], for which the reverse-splicing fitness worked out at 0.00861. Take GUGCCUUGCGCCGGGAAACCACGCAAGGGAUGGUGUCAAAUUCGGCGAAACCUAAGCGCCCGCCCGGGCGUAUGGCAACGCUGAGCCAAGCUUCGGCGCCUGCGCCGAUGCAGGUGUAGCGACUAGACGGCACCCACCUAAGGCCAACGAUAUGGUGAAGGCAUAGUCUAGGGAGUGGCGAAAGUCACACAAACCGG [C82U A111C A120C A145C C150A C169U]: the reverse-splicing fitness is 0.00906. For GUGCCUUGCGCCGGGAAACCACGCAAGGGAUGGUGUCAAAUUCGGCGAAACCUAAGCGCCCGCCCGGGCGUAUGGCAACGCUGAGCCAAGCUUCGGCGCCUGCGCCGAUGCAGGUGUAGCGACUAGACGGCACCCACCUAAGGCCAACGGUAUGGUGAAGGCAUAGUCCAGGGAGUGGCGAAAGUCACACAAACCGG [C82U A111C A120C A145C C150G], the reverse-splicing fitness stood at 0.00813. Then GUGCCUUGCGCCGGGAAACCACGCAAGGGAUGGUGUCAAAUUCGGCGAAACCUAAGCGCCCGCCCGGGCGUAUGGCAACGCUGAGCCAAGCUUCGGCGCCUGCGCCGAUGCAGGUGUAGCGACUAGACGGCACCCACCUAAGGCCAACGGUAUGGUGAAGGCAUAGUCGAGGGAGUGGCGAAAGUCACACAAACCGG [C82U A111C A120C A145C C150G C169G], with 0.00681; and GUGCCUUGCGCCGGGAAACCACGCAAGGGAUGGUGUCAAAUUCGGCGAAACCUAAGCGCCCGCCCGGGCGUAUGGCAACGCUGAGCCAAGCUUCGGCGCCUGCGCCGAUGCAGGUGUAGCGACUAGACGGCACCCACCUAAGGCCAACGGUAUGGUGAAGGCAUAGUCAAGGGAGUGGCGAAAGUCACACAAACCGG [C82U A111C A120C A145C C150G C169A], with 0.00861; and GUGCCUUGCGCCGGGAAACCACGCAAGGGAUGGUGUCAAAUUCGGCGAAACCUAAGCGCCCGCCCGGGCGUAUGGCAACGCUGAGCCAAGCUUCGGCGCCUGCGCCGAUGCAGGUGUAGCGACUAGACGGCACCCACCUAAGGCCAACGAUAUGGUGAAGGCAUAGUCCAGGGAGCGGCGAAAGUCACACAAACCGG [C82U A111C A120C A145C C150A U176C], with 0.0116. The same measure for GUGCCUUGCGCCGGGAAACCACGCAAGGGAUGGUGUCAAAUUCGGCGAAACCUAAGCGCCCGCCCGGGCGUAUGGCAACGCUGAGCCAAGCUUCGGCGCCUGCGCCGAUGCAGGUGUAGCGACUAGACGGCACCCACCUAAGGCCAACGAUAUGGUGAAGGCAUAGUCCAGGGAGAGGCGAAAGUCACACAAACCGG [C82U A111C A120C A145C C150A U176A]: 0.00991; for GUGCCUUGCGCCGGGAAACCACGCAAGGGAUGGUGUCAAAUUCGGCGAAACCUAAGCGCCCGCCCGGGCGUAUGGCAACGCUGAGCCAAGCUUCGGCGCCUGCGCCGAUGCAGGUGUAGCGACUAGACGGCACCCACCUAAGGCCAACGAUAUGGUGAAGGCAUAGUCCAGGGAGGGGCGAAAGUCACACAAACCGG [C82U A111C A120C A145C C150A U176G]: 0.00522.

Source of the values: the RNAGym collection of RNA variant scans (doi:10.1093/molbev/msab373).
